Reference: patent US20250376539A1 (KIRA PHARMACEUTICALS SUZHOU, published 2025)
Where “and” joins values, the source holds several entries; their conditions need not be identical. Equal values may be shown once. Blank lines part the entries; values can stand above or below the binder they belong to.

Key:
[1] = molecular target: T1, recombinant human complement C2 (NP_000054.2), C-terminal 6His-tag, made in house (CHO cell expression) (human, UniProt P06681 21-752); assay: BLI (Gator), antibody on probe; 600 s association at pH 7.4, 600 s dissociation at pH 5.8
T1 construct: a linker before the tag is not described; also called human C2; Human C2
T1 sequence: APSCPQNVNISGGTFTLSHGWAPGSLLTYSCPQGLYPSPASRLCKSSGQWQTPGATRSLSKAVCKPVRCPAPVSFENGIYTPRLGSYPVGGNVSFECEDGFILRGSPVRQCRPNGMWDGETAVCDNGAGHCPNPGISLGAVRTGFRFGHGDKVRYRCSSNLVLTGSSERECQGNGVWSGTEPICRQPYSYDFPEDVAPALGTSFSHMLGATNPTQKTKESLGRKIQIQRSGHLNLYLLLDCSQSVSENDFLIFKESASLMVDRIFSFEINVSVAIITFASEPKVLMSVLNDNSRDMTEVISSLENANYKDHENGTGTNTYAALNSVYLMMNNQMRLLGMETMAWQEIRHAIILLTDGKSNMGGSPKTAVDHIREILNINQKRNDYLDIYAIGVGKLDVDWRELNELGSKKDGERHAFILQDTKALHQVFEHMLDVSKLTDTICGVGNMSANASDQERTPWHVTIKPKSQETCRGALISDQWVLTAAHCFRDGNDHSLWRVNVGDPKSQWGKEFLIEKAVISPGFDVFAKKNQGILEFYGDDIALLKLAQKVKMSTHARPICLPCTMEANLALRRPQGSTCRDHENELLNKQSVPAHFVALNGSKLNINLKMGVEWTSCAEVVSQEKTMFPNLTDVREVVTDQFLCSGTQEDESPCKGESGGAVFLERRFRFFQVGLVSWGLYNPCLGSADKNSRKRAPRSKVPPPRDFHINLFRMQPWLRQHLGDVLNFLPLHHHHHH
Description: (§1) The histidine mutant constructs in Table 4 were tested for their pH-dependent dissociation from human C2. Probe-immobilized anti-C2 antibodies were incubated with C2 at pH 7.4 for 600s, followed by a 600s dissociation period in K Buffer at pH 7.4 or pH 5.8. The data were processed and analyzed by the Gator evaluation software.
(§2) Non-fusion mAb were used for comparison.

[2] = molecular target: T2, recombinant cynomolgus (cyno) complement C2 (XP_005553508.1), C-terminal 6His-tag, made in house (CHO cell … (cynomolgus monkey (Macaca fascicularis), UniProt P06681 21-752 (human entry))); assay: as above
T2 construct: also called cyno C2; Cyno C2
T2 chain: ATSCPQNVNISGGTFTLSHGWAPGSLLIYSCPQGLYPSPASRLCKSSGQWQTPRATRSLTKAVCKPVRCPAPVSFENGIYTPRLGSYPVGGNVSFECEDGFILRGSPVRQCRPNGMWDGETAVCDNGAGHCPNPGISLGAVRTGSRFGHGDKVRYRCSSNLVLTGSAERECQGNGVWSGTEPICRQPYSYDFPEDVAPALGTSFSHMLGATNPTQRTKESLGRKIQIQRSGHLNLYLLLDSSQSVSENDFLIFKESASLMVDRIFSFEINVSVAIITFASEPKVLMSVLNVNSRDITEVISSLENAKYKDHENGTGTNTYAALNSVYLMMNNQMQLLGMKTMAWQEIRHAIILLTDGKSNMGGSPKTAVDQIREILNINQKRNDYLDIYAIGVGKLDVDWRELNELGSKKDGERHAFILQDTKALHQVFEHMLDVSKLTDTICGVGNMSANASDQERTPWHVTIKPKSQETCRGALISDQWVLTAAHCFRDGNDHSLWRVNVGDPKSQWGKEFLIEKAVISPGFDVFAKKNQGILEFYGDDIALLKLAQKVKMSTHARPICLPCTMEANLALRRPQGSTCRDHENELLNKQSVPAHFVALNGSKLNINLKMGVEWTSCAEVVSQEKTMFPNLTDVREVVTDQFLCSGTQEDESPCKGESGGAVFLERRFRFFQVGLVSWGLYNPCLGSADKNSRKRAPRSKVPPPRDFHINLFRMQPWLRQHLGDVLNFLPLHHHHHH
Description: as §1, §2

[3] = molecular target: T1, recombinant human complement C2 …; assay: binding kinetics, neutral pH (BLI presumed)
[4] = molecular target: T1, recombinant human complement C2 …; assay: BLI (Gator); ratio of dissociation at pH 5.8 to pH 7.4
Description: as §1, §2

[5] = molecular target: T2, recombinant cynomolgus (cyno) …; assay: as above
Description: as §1, §2

[6] = molecular target: T3, human complement C2 in normal human serum (human, UniProt P06681 21-752); assay: cell-based or functional assay
T3 sequence: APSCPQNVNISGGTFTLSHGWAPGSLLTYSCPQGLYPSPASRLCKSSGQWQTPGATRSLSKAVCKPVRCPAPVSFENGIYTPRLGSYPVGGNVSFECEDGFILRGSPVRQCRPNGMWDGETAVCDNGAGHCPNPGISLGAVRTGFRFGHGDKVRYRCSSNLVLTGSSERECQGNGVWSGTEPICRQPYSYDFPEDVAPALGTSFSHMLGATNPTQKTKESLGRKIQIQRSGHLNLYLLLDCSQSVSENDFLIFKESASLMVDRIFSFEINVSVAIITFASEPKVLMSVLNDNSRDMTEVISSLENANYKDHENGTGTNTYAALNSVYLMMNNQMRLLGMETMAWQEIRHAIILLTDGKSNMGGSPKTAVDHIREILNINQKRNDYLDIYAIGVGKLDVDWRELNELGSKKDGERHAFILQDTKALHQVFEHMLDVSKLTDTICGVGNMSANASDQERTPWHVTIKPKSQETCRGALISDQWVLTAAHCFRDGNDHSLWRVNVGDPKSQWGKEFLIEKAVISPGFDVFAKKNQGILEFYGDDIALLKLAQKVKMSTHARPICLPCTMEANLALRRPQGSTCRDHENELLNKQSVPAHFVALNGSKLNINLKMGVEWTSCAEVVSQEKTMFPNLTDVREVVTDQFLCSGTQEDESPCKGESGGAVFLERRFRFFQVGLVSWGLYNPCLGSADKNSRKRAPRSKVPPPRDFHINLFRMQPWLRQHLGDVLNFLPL

- Dissociation (%) pH 5.8 [1]: 2.45%
- Dissociation (%) pH 5.8 [2]: 7.22%
- Kd [3]: 0.296 nM
- koff [3]: 5.85e-05 s⁻¹
- kon [3]: 197000 M⁻¹ s⁻¹
- Fold dissociation pH 5.8/pH 7.4 [4]: 0.78 fold
- Fold dissociation pH 5.8/pH 7.4 [5]: 1.5 fold
- IC50, inhibition of sheep RBC lysis, 5% serum [6]: 2.8 nM
B1: anti-C2 antibody 69.44 (antibody, IgG4, V domains shown)
VH: QVQLVQSGAEVKKPGASVKVSCKASGYSFTTYYMYWVRQAPGQGLEWMGIITPSGGSTTYAQKFQDRVTMTRDASTTTVYMELSSLRSEDTAVYYCARGYEGSYGFDHWGQGTLVTVSS
VL: SYELTQPPSVSLSPGQTASITCSGDKLGNKYTCWYQQKPGQSPVLVIYQDNKRPSGIPERFSGSNSGNTATLTISGTQAMDEADYYCQTWDSSTAVFGGGTKLTVL
notes: Recombinant

- Dissociation (%) pH 5.8 [1]: 10.4%
- Dissociation (%) pH 5.8 [2]: 14.5%
- Kd [3]: 0.198 nM and 0.0984 nM
- koff [3]: 6.12e-05 s⁻¹ and 3.73e-05 s⁻¹
- kon [3]: 308000 M⁻¹ s⁻¹ and 379000 M⁻¹ s⁻¹
- Fold dissociation pH 5.8/pH 7.4 [4]: 1.97 fold
- Fold dissociation pH 5.8/pH 7.4 [5]: 2.7 fold
- IC50, inhibition of sheep RBC lysis, 5% serum [6]: 2.9 nM
B2: anti-C2 antibody 3.2 (antibody, IgG4, V domains shown)
VH: EVQLLESGGGLVQPGGSLRLSCAASGFTFRHYAMSWVRQAPGKGLEWVSLISGSGASTFYADSVKGRFTISRDNSENMLYLQMNSLRAEDTAVYYCAKDSLAVAGSEYFQHWGQGTLVTVSS
VL: SYVLTQAPSVSVAPGQTARITCGGNYFGGKSVHWYQQRPGQAPVLVVYDDSDRPSGIPERFSGSKSGNTATLAISRVEAGDEAAYYCQVYDTSSDHWVFGGGTKLTVL
notes: Recombinant; also called WT; "WT" 3.2
